In US20200157212A1 (Pfizer, published 2020):

Target: T1, Terbium (Tb) labeled-SNAP tagged ROBO2 expressed on HEK293 cells (Homo sapiens (Human), UniProt Q9HCK4 22-1378, terbium label on the SNAP tag)
T1 construct: also called Tb-labeled ROBO2 cells; ROBO2 expressing cells; not shown: SNAP tag
T1 sequence: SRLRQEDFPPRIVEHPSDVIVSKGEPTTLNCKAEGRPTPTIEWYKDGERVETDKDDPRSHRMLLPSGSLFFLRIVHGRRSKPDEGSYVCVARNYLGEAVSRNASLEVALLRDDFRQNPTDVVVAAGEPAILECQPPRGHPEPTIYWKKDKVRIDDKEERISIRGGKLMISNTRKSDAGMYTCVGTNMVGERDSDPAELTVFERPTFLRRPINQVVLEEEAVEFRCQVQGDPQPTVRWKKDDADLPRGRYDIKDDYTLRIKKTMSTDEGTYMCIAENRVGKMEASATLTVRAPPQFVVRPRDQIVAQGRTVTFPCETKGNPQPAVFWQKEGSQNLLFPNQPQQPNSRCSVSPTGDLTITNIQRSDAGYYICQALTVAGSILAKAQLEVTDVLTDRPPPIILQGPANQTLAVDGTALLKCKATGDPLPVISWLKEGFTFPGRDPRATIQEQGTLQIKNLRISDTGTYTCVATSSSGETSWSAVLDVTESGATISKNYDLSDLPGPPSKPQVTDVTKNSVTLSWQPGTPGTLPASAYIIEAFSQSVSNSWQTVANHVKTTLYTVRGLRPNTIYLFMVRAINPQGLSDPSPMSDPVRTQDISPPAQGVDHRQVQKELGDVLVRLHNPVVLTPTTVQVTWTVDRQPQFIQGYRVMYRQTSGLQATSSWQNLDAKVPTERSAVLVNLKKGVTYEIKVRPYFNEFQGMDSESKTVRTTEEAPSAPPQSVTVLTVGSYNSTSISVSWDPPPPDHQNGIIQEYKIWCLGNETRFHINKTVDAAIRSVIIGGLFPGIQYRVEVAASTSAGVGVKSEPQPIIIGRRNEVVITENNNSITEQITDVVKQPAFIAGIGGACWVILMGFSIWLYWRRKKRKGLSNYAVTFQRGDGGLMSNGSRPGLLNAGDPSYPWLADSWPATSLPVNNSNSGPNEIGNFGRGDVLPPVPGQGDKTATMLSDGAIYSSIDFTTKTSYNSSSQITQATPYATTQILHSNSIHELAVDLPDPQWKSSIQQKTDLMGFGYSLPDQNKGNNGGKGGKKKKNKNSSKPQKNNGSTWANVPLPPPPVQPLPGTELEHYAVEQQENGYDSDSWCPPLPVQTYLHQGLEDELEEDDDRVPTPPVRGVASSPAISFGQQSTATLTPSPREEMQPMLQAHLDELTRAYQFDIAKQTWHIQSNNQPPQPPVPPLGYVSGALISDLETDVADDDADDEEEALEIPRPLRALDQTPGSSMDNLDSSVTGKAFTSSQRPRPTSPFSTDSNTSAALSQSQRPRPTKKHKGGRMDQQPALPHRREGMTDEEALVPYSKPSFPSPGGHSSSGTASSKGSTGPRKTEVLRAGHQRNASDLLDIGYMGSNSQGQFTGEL
Experiment: HTRF, 5 nM d2-SLIT2-N on Tb-SNAP-ROBO2 HEK293 cells, no antibody (maximal signal)
Method: In this assay, terbium (Tb) labeled-SNAP tagged ROBO2 expressing HEK293 cells were incubated with 5 nM d2-labeled SLIT-2N in the presence of 1 nM anti-ROBO2 antibodies for 1 hour. After incubation, fluorescence at 665 nm and 620 nm was measured on an Envision multilabel plate reader. […] Maximal signal was defined as the HTRF ratio of Tb-labeled ROBO2 cells with d2-labeled SLIT2-N in the absence of antibody, the minimum signal was defined as the HTRF ratio of Tb-labeled ROBO2 expressing HEK293 cells only. One nanomolar (nM) parental antibody, 93H2, was unable to block the HTRF assay, therefore this concentration was selected to identify clones with a higher affinity than 93H2 (Table 2, HTRF Ratio column). […] Antibodies derived from chain (Abcs series) or CDR shuffling (CTIR-2 series) were evaluated in 11-point, 5-fold dilution series with a top concentration of 1500 nM (Table 2 HTRF IC₅₀).
HTRF assays were run with 5 nM d2-labeled SLIT2-N and antibodies were added at 1 nM. […] Antibodies derived from chain (Abcs series) or CDR shuffling (CTIR-2 series) were evaluated in 11-point, 5-fold dilution series with a top concentration of 1500 nM, N.T. = not tested; ^cFold selectivity was calculated as Geometric Mean Fluorescent Intensity (Geo MFI) of ROBO2/Geo MFI of ROBO1 binding.

HTRF Ratio: 11900
B1: SLIT2-N (ligand)
chain: QCSCSGSTVDCHGLALRSVPRNIPRNTERLDLNGNNITRITKTDFAGLRHLRVLQLMENKISTIERGAFQDLKELERLRLNRNHLQLFPELLFLGTAKLYRLDLSENQIQAIPRKAFRGAVDIKNLQLDYNQISCIEDGAFRALRDLEVLTLNNNNITRLSVASFNHMPKLRTFRLHSNNLYCDCHLAWLSDWLRQRPRVGLYTQCMGPSHLRGHNVAEVQKREFVCSGHQSFMAPSCSVLHCPAACTCSNNIVDCRGKGLTEIPTNLPETITEIRLEQNTIKVIPPGAFSPYKKLRRIDLSNNQISELAPDAFQGLRSLNSLVLYGNKITELPKSLFEGLFSLQLLLLNANKINCLRVDAFQDLHNLNLLSLYDNKLQTIAKGTFSPLRAIQTMHLAQNPFICDCHLKWLADYLHTNPIETSGARCTSPRRLANKRIGQIKSKKFRCSAKEQYFIPGTEDYRSKLSGDCFADLACPEKCRCEGTTVDCSNQKLNKIPEHIPQYTAELRLNNNEFTVLEATGIFKKLPQLRKINFSNNKITDIEEGAFEGASGVNEILLTSNRLENVQHKMFKGLESLKTLMLRSNRITCVGNDSFIGLSSVRLLSLYDNQITTVAPGAFDTLHSLSTLNLLANPFNCNCYLAWLGEWLRKKRIVTGNPRCQKPYFLKEIPIQDVAIQDFTCDDGNDDNSCSPLSRCPTECTCLDTVVRCSNKGLKVLPKGIPRDVTELYLDGNQFTLVPKELSNYKHLTLIDLSNNRISTLSNQSFSNMTQLLTLILSYNRLRCIPPRTFDGLKSLRLLSLHGNDISVVPEGAFNDLSALSHLAIGANPLYCDCNMQWLSDWVKSEYKEPGIARCAGPGEMADKLLLTTPSKKFTCQGPVDVNILAKCNPCLSNPCKNDGTCNSDPVDFYRCTCPYGFKGQDCDVPIHACISNPCKHGGTCHLKEGEEDGFWCICADGFEGENCEVNVDDCEDNDCENNSTCVDGINNYTCLCPPEYTGELCEEKLDFCAQDLNPCQHDSKCILTPKGFKCDCTPGYVGEHCDIDFDDCQDNKCKNGAHCTDAVNGYTCICPEGYSGLFCEFSPPMVLPRTSPCDNFDCQ
modifications: d2 label in the HTRF assay
notes: also called d2-labeled SLIT2-N
